This is an account of results in PMC4741471 (Oncotarget, 2015).

This series deals with the molecule itself. The series is described as follows: non-reducing SDS-PAGE without heating.

B1: cholera toxin B subunit (recombinant, His6-tagged CTB) (natural protein)
chain: TPQNITDLCAEYHNTQIYTLNDKIFSYTESLAGKREMAIITFKNGAIFQVEVPGSQHIDSQKKAIERMKDTLRIAYLTEAKVEKLCVWNNKTPHAIAAISMAN
Broadly, the stoichiometry N is the number of molecules, sites or subunits per partner or assembly. On to B1, for which the “stoichiometry N” value was determined as 5.
